Experimental findings from article PMC2691592, “Caenorhabditis elegans Protein Arginine Methyltransferase PRMT-5 Negatively Regulates DNA Damage-Induced Apoptosis” (PLoS Genetics, 2009) are described below.

In this test the target is T1, PRMT-5His6 (C. elegans, UniProt P46580 1-734).
T1 construct: C. elegans protein arginine methyltransferase PRMT-5, open reading frame C34E10.5, a protein of 734 amino acids; cDNA of prmt-5 cloned into pET21a; also called purified PRMT-5His6 protein; recombinant PRMT-5
The test can be described thus: pull-down; GST-CEP-1 or GST immobilised on glutathione sepharose beads, incubated with purified PRMT-5His6 for more than 2 h; bound PRMT-5His6 detected by immunoblot with anti-PRMT-5 antibody. The settings on record: both partners purified. (In general: In western blotting, separated proteins are transferred to a membrane and probed.)

T1 sequence (P46580 whole entry): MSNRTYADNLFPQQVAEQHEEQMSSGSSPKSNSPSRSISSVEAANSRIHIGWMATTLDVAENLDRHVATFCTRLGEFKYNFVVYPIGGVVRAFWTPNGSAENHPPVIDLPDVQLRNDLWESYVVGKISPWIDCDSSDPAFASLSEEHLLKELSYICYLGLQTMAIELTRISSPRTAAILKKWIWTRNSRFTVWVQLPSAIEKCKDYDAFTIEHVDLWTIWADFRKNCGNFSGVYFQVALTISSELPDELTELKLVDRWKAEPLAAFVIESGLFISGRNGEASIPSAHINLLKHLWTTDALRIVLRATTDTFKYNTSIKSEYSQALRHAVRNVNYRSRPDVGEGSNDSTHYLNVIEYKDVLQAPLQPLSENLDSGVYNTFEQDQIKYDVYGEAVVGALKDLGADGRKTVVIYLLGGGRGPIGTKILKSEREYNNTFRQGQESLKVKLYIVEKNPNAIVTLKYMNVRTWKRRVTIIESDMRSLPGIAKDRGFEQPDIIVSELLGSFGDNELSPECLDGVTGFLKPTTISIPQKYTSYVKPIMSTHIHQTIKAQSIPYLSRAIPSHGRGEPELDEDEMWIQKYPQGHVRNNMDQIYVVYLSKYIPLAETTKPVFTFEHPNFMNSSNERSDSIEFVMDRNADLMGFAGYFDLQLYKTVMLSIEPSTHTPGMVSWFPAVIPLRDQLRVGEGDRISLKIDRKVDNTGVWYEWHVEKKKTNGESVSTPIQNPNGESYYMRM

B1: GST-CEP-1 (natural protein, C. elegans, UniProt Q20646 1-644, looked up)
chain: MEPDDSQLSDILKDARIPDSQDIGVNLTQNLSFDTVQKMIDGVFTPIFSQGTEDSLEKDILKTPGISTIYNGILGNGEETKKRTPKISDAFEPDLNTSGDVFDSDKSEDGLMNDESYLSNTTLSQVVLDSQKYEYLRVRTEEEQQLVIEKRARERFIRKSMKIAEETALSYENDGSRELSETMTQKVTQMDFTETNVPFDGNDESSNLAVRVQSDMNLNEDCEKWMEIDVLKQKVAKSSDMAFAISSEHEKYLWTKMGCLVPIQVKWKLDKRHFNSNLSLRIRFVKYDKKENVEYAIRNPRSDVMKCRSHTEREQHFPFDSFFYIRNSEHEFSYSAEKGSTFTLIMYPGAVQANFDIIFMCQEKCLDLDDRRKTMCLAVFLDDENGNEILHAYIKQVRIVAYPRRDWKNFCEREDAKQKDFRFPELPAYKKASLESINIKQEVNLENMFNVTNTTAQMEPSTSYSSPSNSNNRKRFLNECDSPNNDYTMMHRTPPVTGYASRLHGCVPPIETEHENCQSPSMKRSRCTNYSFRTLTLSTAEYTKVVEFLAREAKVPRYTWVPTQVVSHILPTEGLERFLTAIKAGHDSVLFNANGIYTMGDMIREFEKHNDIFERIGIDSSKLSKYYEAFLSFYRIQEAMKLPK
notes: C. elegans p53 homolog CEP-1; called the full-length GST-CEP-1 fusion protein; pGEX vectors put GST at the N-terminus; also called GST-CEP-1 fusion protein; full-length GST-CEP-1
In the case of B1, the binding result is reported as “binds”.
